Test results published in paper PMC11401937 (Nature Communications, 2024).

Target: the molecule itself
Experiment: cryo-EM structure

B1: Human Best1 protein purified for cryo-EM (GABA-bound pentamer) (natural protein)
chain: TITYTSQVANARLGSFSRLLLCWRGSIYKLLYGEFLIFLLCYYIIRFIYRLALTEEQQLMFEKLTLYCDSYIQLIPISFVLGFYVTLVVTRWWNQYENLPWPDRLMSLVSGFVEGKDEQGRLLRRTLIRYANLGNVLILRSVSTAVYKRFPSAQHLVQAGFMTPAEHKQLEKLSLPHNMFWVPWVWFANLSMKAWLGGRIRDPILLQSLLNEMNTLRTQCGHLYAYDWISIPLVYTQVVTVAVYSFFLTCLVGRQFLNPAKAYPGHELDLVVPVFTFLQFFFYVGWLKVAEQLINPFGEDDDDFETNWIVDRNLQVSLLAVDEMHQDLPRMEPDMYWNKPEPQPPYTAASAQFRRASFMGSTFNISLNKEEMEFQPNQEDEEDAHAGIIGRFLGLQSHDHHPPRANSRTKLLWPKRESLLHEGLPKNHKAAKQNVRGQEDNKAWKLKAVDAFKSAPLYQRPGYYSAPQTPLSPTPMFFPLEPSAPSKLHSVTGIDTKDKSLKTVSSGAKKSFELLSESDGALMEHPEVSQVRRKTVEFNLTDMPEIPENHLKEPLEQSPTNIHTTLKDHMDPYWALENRDEAHS
  stoichiometry N: 5
